Measured values taken from patent US20150139990A1 (DAINIPPON SUMITOMO PHARMA, published 2015).
Positions count from the first letter of the chain named. Numbers in names are those of the source.

T1: human CD81 mutant V169L (human, UniProt P60033 1-236, limits assumed)
T1 construct: as m30; not shown: C-terminal V5 and 6xHis tags
T1 sequence: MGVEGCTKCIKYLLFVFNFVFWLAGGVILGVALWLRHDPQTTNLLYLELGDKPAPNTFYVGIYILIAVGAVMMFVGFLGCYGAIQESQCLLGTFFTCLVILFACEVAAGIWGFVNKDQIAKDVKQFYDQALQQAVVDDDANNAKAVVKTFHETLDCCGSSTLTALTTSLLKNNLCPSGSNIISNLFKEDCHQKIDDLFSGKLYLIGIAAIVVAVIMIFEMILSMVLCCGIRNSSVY

T2: human CD81 mutant A164V (human, UniProt P60033 1-236, limits assumed)
T2 construct: as m30; not shown: C-terminal V5 and 6xHis tags
T2 sequence: T1 sequence with A164V, L169V

T3: human CD81 on CD81-expressing cells (Jurkat E6.1, human PBMC, Ramos) (human, UniProt P60033 1-236)
T3 sequence: T1 sequence with L169V

T4: human CD81 mutant V135A (human, UniProt P60033 1-236, limits assumed)
T4 construct: as m30; not shown: C-terminal V5 and 6xHis tags
T4 sequence: T1 sequence with V135A, L169V

T5: human CD81 mutant V169A (human, UniProt P60033 1-236, limits assumed)
T5 construct: as m30; not shown: C-terminal V5 and 6xHis tags
T5 sequence: T1 sequence with L169A

T6: human CD81 mutant A164T (human, UniProt P60033 1-236, limits assumed)
T6 construct: as m30; not shown: C-terminal V5 and 6xHis tags
T6 sequence: T1 sequence with A164T, L169V

T7: human CD81 mutant L165A (human, UniProt P60033 1-236, limits assumed)
T7 construct: as m30; not shown: C-terminal V5 and 6xHis tags
T7 sequence: T1 sequence with L165A, L169V

B1: 002-C09 (antibody, human IgG4 S228P, lambda, V domains shown)
VH: EVQLLESGGGLVQPGGSLRLSCAASGFTFSSNYMSWVRQAPGKGLEWVSYISSSSTYTDYADSVKGRFTISRDNSKNTLYLQMNSLRAEDTAVYYCARYSYGRDNFDYWGQGTLVTVSS
VL: QSVLTQPASASGTPGQRVTISCTGSTSNIGAGYGTHWYQRLPGTAPKLLIYGNSNRPSGVPDRFSGSKSGTSASLAISGLRSEDEADYYCQSYDTNLSGWVFGGGTKLTVLG
notes: IgG4 S228P
B2: 002-B07 (antibody, human IgG4 S228P, lambda, V domains shown)
VH: B1 VH
VL: B1 VL with A8S, G34D, R40Q
notes: IgG4 S228P
B3: 002-D08 (antibody, human IgG4 S228P, lambda, V domains shown)
VH: B1 VH with A24T, T28P, T58S, T69S
VL: B1 VL with A8S, G34A, R40Q, G99V
notes: IgG4 S228P
B4: 002-H03 (antibody, human IgG4 S228P, lambda, V domains shown)
VH: B1 VH
VL: B1 VL with A8S, G34D, R40Q, L48P, G99A
notes: IgG4 S228P
B5: 001-B06 (antibody, human IgG4 S228P, lambda, V domains shown)
VH: B1 VH with N105T
VL: B1 VL with A8F, G34D, R40Q, S82P, N96S, G99V
notes: IgG4 S228P

target: T1, human CD81 mutant V169L; test: ELISA

| Binder | relative binding affinity |
| --- | --- |
| B1 | < 20% |
| B2 | < 20% |

target: T2, human CD81 mutant A164V; test: ELISA

| Binder | relative binding affinity |
| --- | --- |
| B1 | < 20% |
| B2 | < 20% |
| B3 | < 20% |
| B4 | < 20% |

target: T3, human CD81 on CD81-expressing cells …; test: cell-based or functional assay

| Binder | Jurkat chemotaxis (% of control IgG4) at 0.001 µg/mL | Jurkat chemotaxis (% of control IgG4) at 0.01 µg/mL | Jurkat chemotaxis (% of control IgG4) at 0.1 µg/mL | Jurkat chemotaxis (% of control IgG4) at 1 µg/mL | Jurkat chemotaxis (% of control IgG4) at 10 µg/mL |
| --- | --- | --- | --- | --- | --- |
| B5 | 102% | 91% | 35% | 3% | 3% |
| B1 | 101% | 82% | 15% | -1% | 11% |
| B2 | 92% | 87% | 8% | 4% | -9% |
| B3 | 101% | 105% | 67% | 19% | 14% |
| B4 | 106% | 89% | 13% | 0% | -3% |

target: T4, human CD81 mutant V135A; test: ELISA

| Binder | relative binding affinity |
| --- | --- |
| B1 | < 20% |
| B2 | < 20% |
| B3 | < 20% |
| B4 | < 20% |

target: T5, human CD81 mutant V169A; test: ELISA

| Binder | relative binding affinity |
| --- | --- |
| B5 | < 20% |
| B1 | < 20% |
| B2 | < 20% |
| B3 | < 20% |
| B4 | < 20% |

target: T6, human CD81 mutant A164T; test: ELISA

| Binder | relative binding affinity |
| --- | --- |
| B1 | < 20% |
| B2 | < 20% |
| B3 | < 20% |
| B4 | < 20% |

target: T7, human CD81 mutant L165A; test: ELISA

| Binder | relative binding affinity |
| --- | --- |
| B1 | < 20% |
| B2 | < 20% |
| B3 | < 20% |
| B4 | < 20% |
